2 molecules from PMC5655499, “Peptide array-based screening reveals a large number of proteins interacting with the ankyrin-repeat domain of the zDHHC17 S-acyltransferase” (The Journal of Biological Chemistry, 2017) can be followed below.

The assay addresses T1, His6-tagged AR domain (residues 51–288) of zDHHC17 (human, UniProt Q8IUH5 51-288).
T1 construct: ankyrin-repeat (AR) domain of human zDHHC17 (HIP14), residues 51-288; pET303CT-His plasmid; also called ARzD17-His; ARzD17; source: E. coli BL21(DE3)pLysS, purified; not shown: His6 (after a Leu-Glu linker), C-terminal, kept
T1 sequence (looked up): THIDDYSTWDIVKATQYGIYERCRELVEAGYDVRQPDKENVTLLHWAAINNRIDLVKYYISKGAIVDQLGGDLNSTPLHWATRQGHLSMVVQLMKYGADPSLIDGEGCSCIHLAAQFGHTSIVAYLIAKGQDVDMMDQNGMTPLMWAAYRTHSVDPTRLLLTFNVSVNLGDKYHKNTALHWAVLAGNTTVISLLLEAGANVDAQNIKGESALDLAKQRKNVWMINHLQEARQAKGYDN
The experiment in a line: peptide or protein array; far-Western on an array of 109 SPOT-synthesised 12-mer peptides on cellulose membrane; ARzD17-His (51–288) 500 nM in PBS-T overnight at 4 °C; detected with His6 tag antibody; signals normalised to the highest (1000), values <10 non-binders. The note with it: both partners purified.

B1: PDE4D (Pro-46) zDABM 12-mer peptide (peptide, UniProt Q08499 39-50, looked up)
peptide: HQYPLRQPQFRL
notes: 12-mer of human PDE4D with Pro-46 at position 7 and YP at positions 2-3; source: synthetic peptide, SPOT synthesis on cellulose membrane
For B1, the binding result was “binds”.

B2: SLAIN1 (Pro-541) zDABM 12-mer peptide (peptide, UniProt Q8ND83 534-545, looked up)
peptide: PRSKIAQPVRSF
notes: also called SLAI1; SLAIN motif-containing protein 1; source: synthetic peptide, SPOT synthesis on cellulose membrane
With B2, the binding result is given as “binds”.
